Two substances from patent publication US20210163946A1 can be followed below.

In this assay the target is human C5a receptor (human) (UniProt P21730). Briefly: cell-based or functional assay.
Sequence of human C5a receptor (human) (P21730 whole entry): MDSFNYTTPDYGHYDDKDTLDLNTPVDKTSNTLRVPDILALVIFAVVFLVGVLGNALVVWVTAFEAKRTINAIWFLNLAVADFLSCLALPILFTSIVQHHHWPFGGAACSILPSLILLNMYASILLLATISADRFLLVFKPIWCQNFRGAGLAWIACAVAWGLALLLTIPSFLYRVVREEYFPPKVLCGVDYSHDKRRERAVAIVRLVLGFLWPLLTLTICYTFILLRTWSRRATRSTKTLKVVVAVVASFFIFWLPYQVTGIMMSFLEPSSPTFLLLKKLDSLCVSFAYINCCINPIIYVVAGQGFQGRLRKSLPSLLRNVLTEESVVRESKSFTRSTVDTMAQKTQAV

The substance “mouse C5a (from UniProt P06684 679-755) (ligand)” returned a half-maximal effective concentration (EC50) of chemotaxis of BA/F3/huC5aR cells of 300 pM.

“recombinant human C5a (from UniProt P01031 678-751) (ligand)” had a half-maximal effective concentration (EC50) of chemotaxis of BA/F3/huC5aR cells of 100 pM.
